To fix the notation:
B1: TRAF3IP2 (parent)
chain: PRPPSNPPARGTLKTSNLPEELRK
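Note: lentivirally expressed fusions sorted by FACS into six bins by GFP to DsRed ratio, PSI derived from sequencing read proportions per bin multiplied by bin number.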

This series covers variants of B1. As to the kind of experiment: protein stability index of a GFP-peptide fusion (GPS, HEK-293T) (PSI 1-6); higher = more stable. The settings on record: c terminus: a fixed tail appended.
As to PRPPSNPPARYTLKTSNLPEELRK, the protein stability index was 4.28. To PRPPSNPPARCTLKTSNLPEELRK belongs 4.25; to PRPPSNPPARPTLKTSNLPEELRK, 4.42. The value for PRPPSNPPARATLKTSNLPEELRK was 4.73; that for PRPPSNPPARFTLKTSNLPEELRK was 3.69; that for PRPPSNPPARWTLKTSNLPEELRK was 3.54.

PRPPSNPPARRTLKTSNLPEELRK: the protein stability index was determined as 3.85. Take PRPPSNPPARDTLKTSNLPEELRK: the protein stability index was 4.86. To PRPPSNPPARLTLKTSNLPEELRK belongs 3.88; to PRPPSNPPARSTLKTSNLPEELRK, 4.54; to PRPPSNPPARETLKTSNLPEELRK, 4.96. To PRPPSNPPAFGTLKTSNLPEELRK belongs 4.49; to PRPPSNPPALGTLKTSNLPEELRK, 4.96. To PRPPSNPPAWGTLKTSNLPEELRK belongs 4.76; to PRPPSNPPAGGTLKTSNLPEELRK, 4.27. For the variant PRPPSNPPAVGTLKTSNLPEELRK, the protein stability index is 5.64. To PRPPSNPPACGTLKTSNLPEELRK belongs 4.58; to PRPPSNPPAMGTLKTSNLPEELRK, 4.64. The value for PRPPSNPPAEGTLKTSNLPEELRK was 4.47.

As for PRPPSNPPAYGTLKTSNLPEELRK, the protein stability index was 4.89. As for PRPPSNPWARGTLKTSNLPEELRK, the protein stability index was 4.22.

With PRPPSNPRARGTLKTSNLPEELRK, the protein stability index amounted to 4.43. Regarding PRPPSNPFARGTLKTSNLPEELRK, the protein stability index was 4.43. To PRPPSNPHARGTLKTSNLPEELRK belongs 3.56; to PRPPSNPIARGTLKTSNLPEELRK, 4.72; to PRPPSNPQARGTLKTSNLPEELRK, 5.09. To PRPPSNPYARGTLKTSNLPEELRK belongs 4.69; to PRPPSNPGARGTLKTSNLPEELRK, 4.82. Take PRPPSNPSARGTLKTSNLPEELRK: the protein stability index stood at 4.8. To PRPPSNPAARGTLKTSNLPEELRK belongs 5.06. To PRPPSNPKARGTLKTSNLPEELRK belongs 4.99; to PRPPSNPTARGTLKTSNLPEELRK, 5.02; to PRPPSNPCARGTLKTSNLPEELRK, 4.48. The value for PRPPSNPEARGTLKTSNLPEELRK was 4.81.

With PRPPSNPDARGTLKTSNLPEELRK, the protein stability index was found to be 4.99.

On to PRPPSNPVARGTLKTSNLPEELRK, for which the protein stability index was 5.04. To PRPPSNPLARGTLKTSNLPEELRK belongs 4.69. To PRPPSNPNARGTLKTSNLPEELRK belongs 4.82. To PRPPSNPMARGTLKTSNLPEELRK belongs 4.76.

Turning to PRPPSNPPGRGTLKTSNLPEELRK, the protein stability index worked out at 4.84. For PRPPSNPPVRGTLKTSNLPEELRK, the protein stability index is 4.31. As to PRPPSNPPNRGTLKTSNLPEELRK, the protein stability index came to 4.95. The value for PRPPSNPPIRGTLKTSNLPEELRK was 4.65; that for PRPPSNPPCRGTLKTSNLPEELRK was 4.31. To PRPPSNPPDRGTLKTSNLPEELRK belongs 5. The value for PRPPSNPPLRGTLKTSNLPEELRK was 4.85; that for PRPPSNPPTRGTLKTSNLPEELRK was 5.3. With PRPPSNPPERGTLKTSNLPEELRK, the protein stability index is 5.06.

Consider PRPPSNPPHRGTLKTSNLPEELRK, for which the protein stability index came out at 4.63. To PRPPSNPPKRGTLKTSNLPEELRK belongs 4.44. To PRPPSNPPRRGTLKTSNLPEELRK belongs 4.6; to PRPPSNPPSRGTLKTSNLPEELRK, 4.62; to PRPPSNPPYRGTLKTSNLPEELRK, 4.5. PRPPSNPPFRGTLKTSNLPEELRK: the protein stability index came to 4.37. As for PRPPSNPPMRGTLKTSNLPEELRK, the protein stability index worked out at 4.68. PRPPSNPPQRGTLKTSNLPEELRK: the protein stability index stood at 4.7.

For the variant PRPPSNPPWRGTLKTSNLPEELRK, the protein stability index was determined as 4.47. To PRPPSNPPARGTLHTSNLPEELRK belongs 5.22. On to PRPPSNPPARGTLSTSNLPEELRK, for which the protein stability index came out at 5.4.

Regarding PRPPSNPPARGTLYTSNLPEELRK, the protein stability index was 4.77.

Regarding PRPPSNPPARGTLGTSNLPEELRK, the protein stability index is 4.68.

For the variant PRPPSNPPARGTLMTSNLPEELRK, the protein stability index was found to be 4.94.

For PRPPSNPPARGTLVTSNLPEELRK, the protein stability index was 5.17. The value for PRPPSNPPARGTLFTSNLPEELRK was 4.84; that for PRPPSNPPARGTLLTSNLPEELRK was 5.17. To PRPPSNPPARGTLATSNLPEELRK belongs 5.35; to PRPPSNPPARGTLRTSNLPEELRK, 4.65. The value for PRPPSNPPARGTLITSNLPEELRK was 4.82; that for PRPPSNPPARGTLTTSNLPEELRK was 5.09; that for PRPPSNPPARGTLNTSNLPEELRK was 4.97.

Take PRPPSNPPARGTLETSNLPEELRK: the protein stability index worked out at 5.27.

PRPPSNPPARGTLQTSNLPEELRK: the protein stability index stood at 5.21. The value for PRPPSNPPARGTLWTSNLPEELRK was 4.58; that for PRPPSNPPARGTLPTSNLPEELRK was 4.83; that for PRPPSNPPARGTLCTSNLPEELRK was 4.76.

PRPPSNPPARGTLDTSNLPEELRK: the protein stability index amounted to 5.37. The value for PRPPSDPPARGTLKTSNLPEELRK was 4.8.

PRPPSQPPARGTLKTSNLPEELRK: the protein stability index was found to be 4.78. To PRPPSGPPARGTLKTSNLPEELRK belongs 4.65; to PRPPSTPPARGTLKTSNLPEELRK, 4.69; to PRPPSHPPARGTLKTSNLPEELRK, 5.21. To PRPPSCPPARGTLKTSNLPEELRK belongs 5.18. The value for PRPPSKPPARGTLKTSNLPEELRK was 4.72; that for PRPPSSPPARGTLKTSNLPEELRK was 5.01; that for PRPPSFPPARGTLKTSNLPEELRK was 5.34. Consider PRPPSRPPARGTLKTSNLPEELRK, for which the protein stability index is 4.49. To PRPPSIPPARGTLKTSNLPEELRK belongs 4.62; to PRPPSAPPARGTLKTSNLPEELRK, 5.47. To PRPPSYPPARGTLKTSNLPEELRK belongs 4.99; to PRPPSWPPARGTLKTSNLPEELRK, 5.83.

As for PRPPSMPPARGTLKTSNLPEELRK, the protein stability index came to 5.31. To PRPPSEPPARGTLKTSNLPEELRK belongs 5.15. For PRPPSLPPARGTLKTSNLPEELRK, the protein stability index worked out at 5.01. The value for PRPPSVPPARGTLKTSNLPEELRK was 4.79.
